# Laboratory results taken from PMC11832919 (Nature Communications, 2025).
# Biological target: StrepTag II-IsdB (Staphylococcus aureus iron-regulated surface determinant protein B) (S. aureus, UniProt Q2FZF0 41-613)
# Assay: SAXS
# Sequence of StrepTag II-IsdB (Staphylococcus aureus iron-regulated surface determinant protein B) (Q2FZF0 41-613): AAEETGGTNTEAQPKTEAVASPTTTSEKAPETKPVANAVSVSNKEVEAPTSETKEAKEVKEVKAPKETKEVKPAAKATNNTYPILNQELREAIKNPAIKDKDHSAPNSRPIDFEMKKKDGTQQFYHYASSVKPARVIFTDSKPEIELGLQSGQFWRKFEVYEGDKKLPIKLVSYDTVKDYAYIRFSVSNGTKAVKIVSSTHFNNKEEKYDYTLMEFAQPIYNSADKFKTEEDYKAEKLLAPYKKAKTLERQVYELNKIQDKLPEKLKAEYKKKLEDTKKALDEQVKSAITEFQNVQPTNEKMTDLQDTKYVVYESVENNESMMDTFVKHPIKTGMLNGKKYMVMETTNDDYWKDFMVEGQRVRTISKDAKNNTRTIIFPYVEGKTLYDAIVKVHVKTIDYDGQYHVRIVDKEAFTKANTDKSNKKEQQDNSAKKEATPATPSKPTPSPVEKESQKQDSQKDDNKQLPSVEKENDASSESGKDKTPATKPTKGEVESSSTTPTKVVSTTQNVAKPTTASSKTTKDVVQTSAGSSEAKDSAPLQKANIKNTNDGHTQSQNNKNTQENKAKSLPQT
binder,measurement,value
human methemoglobin (coordinating oxidized heme) (complex) chain 1: not shown chain 2: not shown,Kd,1680 ± 620 nM
